# Measurements published in patent US7691567B2, “Methods and compositions relating to fortilin, an anti-apoptotic molecule, and modulators of fortilin” (Board of Regents, the University of Texas System, priority 2000, dated 2010).
# Entries after “also recorded” stand apart in the source; their conditions may differ. Read-outs that look alike come from different tables or passages of the source.
# B1: FortilinΔ23-172: mutant of Fortilin representing 23rd-172nd amino acids of Fortilin (protein)
# chain: IADGLCLEVEGKMVSRTEGNIDDSLIGGNASAEGPEGEGTESTVITGVDIVMNHHLQETSFTKEAYKKYIKDYMKSIKGKLEEQRPERVKPFMTGAAEQIKHILANFKNYQFFIGENMNPDGMVALLDYREDGVTPYMIFFKDGLEMEKC
# B2: FortilinΔ46-172: Fortilin deletion mutant that lacks 26% of wild type Fortilin (protein)
# chain: SLIGGNASAEGPEGEGTESTVITGVDIVMNHHLQETSFTKEAYKKYIKDYMKSIKGKLEEQRPERVKPFMTGAAEQIKHILANFKNYQFFIGENMNPDGMVALLDYREDGVTPYMIFFKDGLEMEKC
# modifications: left off: small tags and cut ends
# notes: Fortilin deletion mutant that lacks 26% of wild type Fortilin
# B3: FortilinΔ5-172: nearly full-length Fortilin molecule (amino acids 5-172) (protein)
# chain: RDLISHDEMFSDIYKIREIADGLCLEVEGKMVSRTEGNIDDSLIGGNASAEGPEGEGTESTVITGVDIVMNHHLQETSFTKEAYKKYIKDYMKSIKGKLEEQRPERVKPFMTGAAEQIKHILANFKNYQFFIGENMNPDGMVALLDYREDGVTPYMIFFKDGLEMEKC
# modifications: left off: small tags and cut ends
# Legend:
# caspase 3-like activity = experiment: Assay of caspase 3-like activity in U2OS stable transfectants (Z-DEVD-AFC); assay type: cell-based
# Procedure: Assay of caspase 3-like activity. Approximately 2×10^6 U2OS stable transfectants, either expressing Fortilin (U2OS.F) or harboring empty expression vector (U2OS.E), both of which have been characterized above, were challenged either with dimethyl sulfoxide (DMSO) (vehicle) or with etoposide at a final concentration of 10 μg/mL for 48 hours. Caspase 3-like activity was then determined as previously described (Mannick et al., 1999). In brief, cytosolic proteins were extracted in hypotonic cell lysis buffer (25 mM HEPES, pH 7.5, 5 mM MgCl2, 5 mM EDTA, 5 mM dithiothreitol, 0.05% phenylmethylsulfonyl fluoride [PMSF]; all from Sigma) by three cycles of freezing and thawing. The protein concentration of samples was determined by using a BioRad Bradford protein assay kit (BioRad). Ten micrograms of cytosolic extracts were added to caspase assay buffer (312.5 mM HEPES, pH 7.5, 31.25% sucrose, 0.3125% CHAPS) with Z-DEVD-AFC as substrates (CalBiochem, San Diego, Calif.). Release of 7-amido-4-(trifluoromethyl)coumarin (AFC) was quantified, after 2 hours of incubation at 37° C. (or, in the case of time course experiment, every 10 minutes), using a Fluoroskan system (Thermo-Labsystems, Helsinki, Finland) set to an excitation value of 355 nm and emission value of 525 nm. The results were expressed as relative fluorescence unit (R.F.U.) per microgram of protein.
# U2OS cells [1] = experiment: Bax-mediated apoptosis in transfected U2OS cells (apoptotic index); assay type: cell-based; conditions: for prevention of Bax mediated apoptosis (apoptotic index): U2OS cells cotransfected with Bax-pcDNA3, thirty hours after transfection
# Procedure: The amount of LacZ-pFLAG was 1/10 to 1/20 (w/w) of total amounts of DNA added. Thirty hours after the transfection, cells were stained with X-gal. Blue cells represented cells expressing Bax, β-galactosidase and indicated proteins in question. At least 300 blue cells were counted and evaluated for plasma membrane morphology. Rounded cells were counted as apoptotic. Apoptotic index was calculated as the number of blue apoptotic cells divided by the number of total blue cells counted, expressed in percentage. Without the expression of Bax, there was a modest amount of background cell death noted (Lane 6). On the other hand, the presence of Bax caused 2 holds increase in the number of apoptotic cells (Lane 5). […] Taken together, the ability of Fortilin to inhibit Bax mediated apoptosis is mediated by its interaction with MCL1.
# H1299 cells = experiment: p53-mediated apoptosis in transfected H1299 cells (apoptotic index); assay type: cell-based; conditions: overexpression, thirty hours after transfection
# Procedure: Because wild-type p53 can induce apoptosis, the ability of Fortilin to prevent or inhibit p53-mediated apoptosis was examined. H1299 cells were transfected with indicated combinations of mammalian expression constructs. Thirty hours after the transfection, cells were fixed and stained for beta-galactosidase activities. Cells that were round in shape with significant membrane irregularity were counted as apoptotic (FIG. 5). Apoptotic index was calculated as (Blue cells with apoptotic plasma membrane morphology)/(Total blue cells counted)×100.
# HeLa cells = experiment: Cell death assay: etoposide-induced apoptosis in transfected HeLa cells (apoptotic index); assay type: cell-based; conditions: HeLa cells overexpressing FLAG-tagged protein; 5 μg/mL etoposide 12 hours
# Procedure: Cell death assay: The experiment was performed in duplicate and repeated at least three times. A total of […] HeLa cells were seeded in each well of a 4-well Lab-Teck™ chamber slides (Nalge Nunc International), and transfected with pFLAG containing Fortilin or other control cDNAs, using FuGENE6 (Roche). Twenty-four hours after the transfection, the cells were challenged by 5 μg/mL etoposide for 12 hours. Cells were stained for the FLAG-epitope using anti-FLAG antibody (M2, Sigma Co) and anti-mouse IgG conjugated to Rhodamine Red X (Jackson ImmunoResearch Laboratories). The nuclei were stained with DAPI (4,6-Diamidino-2-phenylindole, Sigma Co). Cells were then examined under a Zeiss AXIOSKOP fluorescent microscope (Carl Zeiss Ltd.), using appropriate filter sets. Cells that emitted red fluorescence were evaluated for their nuclear morphology. Condensed or fragmented nuclei were counted as apoptotic. An apoptotic index was then calculated as the number of red cells with apoptotic nuclear morphology divided by the number of total red cells counted and multiplied by 100.
# Statistical analysis: For the analysis of statistical significance of apoptotic indices among cells transfected with different plasmids, Dunnett's T tests were performed. In all cases, the confidence intervals were 0.95 with the alpha value of 0.05. For the statistical evaluation of the significant linear trend between the amount of plasmids used for the transfection and apoptotic indices, ANOVA (Analysis of Variance) regression analysis was employed. […] For the analysis of statistical significance of possible correlation between the degree of malignancy and the indices of Fortilin immunoreactivity, Dunnett's multiple range tests were performed.
# [2] = tested on: p53 transactivation of Bax gene; experiment: p53 transactivation of Bax gene, p-Bax-RE-Luc luciferase reporter in H1299 cells; assay type: cell-based; conditions: twenty-four hours after transfection
# Procedure: The ability of Fortilin to interfere with transactivation of the Bax gene by p53 was investigated. Non-small cell lung cancer cell line H1299 cells were transfected with p53-pcDNA3, LacZ-pFLAG, p-Bax-RE-Luc (a plasmid encoding the Luciferase gene under the control of the Bax responsive element) and pFLAG vector encoding Bcl-2, MCL1, Fortilin or truncated Fortilin as indicated in FIG. 6. Twenty-four hours after the transfection, luciferase activity was measured and normalized to the β-galactosidase activity, the latter representing transfection efficiency.
# Next, studies were conducted to determine whether the inhibition was dosage dependent. H1299 cells were transfected with p53-pcDNA3, LacZ-pFLAG, p-Bax-RE-Luc and various amount of Fortilin-pFLAG. The total amount of DNA added was adjusted by the addition of empty pFLAG vector. Twenty-four hours after the transfection, luciferase activity was measured and normalized to the β-galactosidase activity.
# U2OS cells [3] = conditions: U2OS stable transfectants of HA-tagged Fortilin or deletion mutants, 5 μg/mL etoposide 48 hours
# Text: Generation and characterization of U2OS cells stably expressing Fortilin. U2OS cells were transfected with empty pcDNA6, a mammalian expression vector containing a blasticidine resistance gene (Invitrogen, Carlsbad, Calif.), or with pcDNA6 vector encoding wild-type Fortilin, by using FuGENE6 (Roche Molecular Biochemicals) according to the manufacturer's instructions. Transfected cells were selected for approximately 3 weeks and characterized by Western blot analysis. For the cytotoxicity assay, U2OS cells stably expressing wild-type Fortilin (U2OS.F) and U2OS cells stably harboring empty pcDNA6 (U2OS.E) were seeded in a 96 well plate in quadruplicate. For the investigation of dose response, cells were challenged with various concentrations of etoposide (0-20 μg/mL) for 48 hours. For the time course study, cells were challenged with 5 μg/mL of etoposide and harvested after various incubation periods (0-96 hours). In both cases, the cell media were assayed for the lactate dehydrogenase (LDH) activity released from the cytosol of damaged cells, using a cytotoxicity detection kit (Roche Molecular Biochemicals) according to the manufacturer's instructions. The cytotoxicity index was calculated as follows: (LDH activity in the media−background LDH activity)÷(LDH activity in the medium of cells lysed by 1% Triton X-100−background LDH activity)×100.
# Cell death assay. U2OS cells stably expressing Fortilin or its mutants were seeded in 96-well plates in triplicate. Cells were then challenged with 5 μg/mL of etoposide (Sigma) for 48 hours. Then the cell media were assayed for the lactate dehydrogenase (LDH) activity released from the cytosol of damaged cells, using a Cytotoxicity Detection Kit (Roche Molecular Biochemicals), according to the manufacturer's instructions. The cytotoxicity index was calculated as follows: (LDH activity in the media−background LDH activity)/(LDH activity in the medium of the cells lysed by 1% Triton X-100−background LDH activity)×100.
# Statistical analysis. For analysis of the statistical significance of differences in cytotoxicity indices among cells stably transfected with Fortilin, its mutants or control plasmids, Student's t-test was performed using a commercial software (Minitab Inc., State College, Pa.). In all cases, a P-value less than 0.05 was considered to be statistically significant.
# MCL1 [4] = molecular target: T1, MCL1 (Homo sapiens, UniProt Q07820); experiment: Yeast two-hybrid assay, X-gal filter lift; assay type: binding; conditions: Saccharomyces cerevisiae SFY526 cells
# Text: Yeast two-hybrid assay. Saccharomyces cerevisiae SFY526 cells (CloneTech) were cotransformed with (a) empty pAS2.1 vector or pAS2.1 vector containing a full-length MCL1 construct and (b) empty pACT2 vector or pACT2 vector containing FL1, the original clone isolated from yeast two-hybrid screening and representative of the nearly full-length Fortilin molecule (amino acids 5-172). FL1 was redesignated as FortilinΔ5-172. Transformed cells were selected on SD plates lacking tryptophan and leucine (SD/-Trp/-Leu plates) for 7 days and subjected to a X-gal filter lift assay as described above. The blue color that developed within 8 hours was considered to represent a positive interaction.
# The yeast two-hybrid system was employed to evaluate any interaction between Fortilin and MCL1. Saccharomyces cerevisiae SFY526 cells were co-transformed with pAS2.1 or pAS2.1-MCL1 and pGAD GH or pGAD GH-FL1, the 5th-172st amino acids of Fortilin. Transformed cells were selected on SD/-Trp/-Leu plates. Grown colonies on these selection plates were subjected to a X-gal filter lift assay, as the reporter gene was […] under the control of a promoter containing the element recognized by the DNA binding domain. […] MCL1 consists of four BH (Bcl-2 homology) domains and two PEST (proline (P), glutamic acid (E), serine (S) and threonine (T)) sequences. “CHT” denotes the C-terminus Hydrophobic Tail. […]
# MCL1 [5] = molecular target: T1, MCL1; experiment: In vitro pull-down assay of HA-tagged Fortilin or mutants with MCL1; assay type: binding; conditions: in vitro translated 35S-labeled proteins, anti-HA pull-down
# MCL1 [6] = molecular target: T1, MCL1; experiment: In vivo coimmunoprecipitation assay in U2OS stable transfectants of Fortilin and mutants; conditions: anti-HA immunoprecipitation
# Text: In vivo coimmunoprecipitation assay. COS-7 cells (2.5×10^6) were cotransfected with pcDNA3-Fortilin-HA or pcDNA3 and with FLAG-MCL1/pFLAG-CMV or pFLAG-CMV vectors using FuGENE6 (Roche Molecular Biochemicals), according to the manufacturer's instructions. […] Formed complexes were precipitated by sheep anti-rat antibodies conjugated to Dynabead™ (Dynal USA); washed with Buffers A and B; eluted into SDS gel loading buffer; and subjected to SDS-PAGE, Western blot transfer and immuodetection with anti-HA (16B12; Covance, Richmond, Calif.) and anti-FLAG (M2; Sigma) antibodies. […] Cells were harvested by scraping, washed with chilled PBS, suspended in Buffer C (Buffer A supplemented with 0.02% NP-40), and lysed by a nitrogen cavitation method (PARR Instrument Co). […] Formed complexes were precipitated by sheep anti-rat antibodies conjugated to Dynabeads™ (Dynal USA); washed with Buffers C; eluted into SDS gel loading buffer; and subjected to SDS-PAGE, Western blot transfer and immuodetection with anti-HA (16B12; Covance, Richmond, Calif.) and anti-MCL1 (Santa Cruz Biotechnology) antibodies.
# T1 sequence (Q07820 whole entry, the tested form may be a part): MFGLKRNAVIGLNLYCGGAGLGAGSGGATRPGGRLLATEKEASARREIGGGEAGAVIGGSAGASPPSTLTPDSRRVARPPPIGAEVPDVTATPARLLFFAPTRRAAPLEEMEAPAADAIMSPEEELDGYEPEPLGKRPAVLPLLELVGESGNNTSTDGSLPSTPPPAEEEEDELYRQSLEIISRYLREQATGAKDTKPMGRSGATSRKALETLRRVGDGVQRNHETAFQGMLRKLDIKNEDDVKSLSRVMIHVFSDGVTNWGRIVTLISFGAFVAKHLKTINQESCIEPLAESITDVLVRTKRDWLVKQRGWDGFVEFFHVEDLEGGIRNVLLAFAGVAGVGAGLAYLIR
molecule,measurement,setting,value
"COc1cc([C@@H]2c3cc4c(cc3[C@@H](O[C@@H]3O[C@@H]5CO[C@@H](C)O[C@H]5[C@H](O)[C@H]3O)[C@H]3COC(=O)[C@H]23)OCO4)cc(OC)c1O [etoposide, reference compound]",caspase-3-like activity index,"caspase 3-like activity; control U2OS.E cells (empty vector), etoposide 10 μg/mL 48 hours",1488.1±58.7 R.F.U./μg protein
same,increase in caspase-3-like activity,"caspase 3-like activity; control U2OS.E cells, etoposide challenge vs no etoposide",9.4 fold
Bax: pro-apoptotic protein expressed from Bax-pcDNA3 to induce apoptosis [reference compound],increase in the number of apoptotic cells,"U2OS cells [1]; U2OS cells, Bax expression versus without Bax",2 holds
Bcl-2: anti-apoptotic protein overexpressed as comparator [reference compound],suppression of p53 induced apoptosis (apoptotic index),H1299 cells,statistically significant (p<0.001) suppression of p53-induced apoptosis; also recorded: statistically significant (p<0.001) suppression of p53 induced apoptosis
"Bcl-xL: a Bcl-2 family protein, overexpressed as anti-apoptotic comparator",prevention of Etoposide-induced apoptosis (apoptotic index),HeLa cells,prevented HeLa cells from undergoing Etoposide-induced apoptosis in a statistically significant fashion
"MCL1: Myeloid Cell Leukemia 1, a Bcl-2 homologue, anti-apoptotic protein [reference compound]",prevention of Bax mediated apoptosis (apoptotic index),U2OS cells [1],prevented cells from undergoing Bax mediated apoptosis
same,suppression of p53 induced apoptosis (apoptotic index),H1299 cells,statistically significant (p<0.001) suppression of p53-induced apoptosis; also recorded: statistically significant (p<0.001) suppression of p53 induced apoptosis
same,prevention of Etoposide-induced apoptosis (apoptotic index),HeLa cells,prevented HeLa cells from undergoing Etoposide-induced apoptosis in a statistically significant fashion
same,inhibition of p53 transactivation of Bax gene (luciferase normalized to β-galactosidase),[2],inhibited p53 transactivation of the Bax gene
B1,prevention of Bax mediated apoptosis (apoptotic index),U2OS cells [1],failed to prevent cells from undergoing Bax mediated apoptosis
same,suppression of p53 induced apoptosis (apoptotic index),H1299 cells; listed as Fortilin(23-172),did not significantly prevent p53-mediated apoptosis; also recorded: did not significantly prevent p53 mediated apoptosis
same,inhibition of p53 transactivation of Bax gene (luciferase normalized to β-galactosidase),[2]; listed as truncated Fortilin (23-172),inhibited p53 transactivation of the Bax gene
same,cytotoxicity index relative to control transfectants,U2OS cells [3],could not prevent cells from undergoing etoposide-induced cell death and instead sensitized the cells to etoposide-induced cell death
same,cytotoxicity index relative to control transfectants,U2OS cells [3]; listed as fortilinΔ23-172,significantly higher than that of control cells
B2,cytotoxicity index relative to control transfectants,U2OS cells [3],significantly lower than the cytotoxicity index of control cells
same,cytotoxicity index relative to control transfectants,U2OS cells [3]; listed as FortilinΔ45-172,"still capable of protecting cells, albeit modestly, from etoposide-induced cell death"
B3,interaction with MCL1 in yeast (X-gal activity),MCL1 [4],X-gal activity was observed
same,interaction / co-immunoprecipitation with MCL1 in vitro,MCL1 [5],interacted
same,interaction / co-immunoprecipitation with MCL1 in vitro,MCL1 [5]; listed as Fortilin (5-172),co-immunoprecipitated MCL1 in vitro
same,co-immunoprecipitation of MCL1 in vivo,MCL1 [6],co-immunoprecipitated MCL1
same,cytotoxicity index relative to control transfectants,U2OS cells [3],significantly lower
same,cytotoxicity index relative to control transfectants,U2OS cells [3]; listed as fortilinΔ5-172,significantly lower than the cytotoxicity index of control cells
